Assays:
HeLa Kyoto [1] = experiment: solubility in G1/S (NP-40 vs SDS abundance) (log2 ratio); higher = more soluble; conditions: cell cycle stage: G1/S
HeLa Kyoto [2] = experiment: melting temperature (median over replicates), in situ; higher = more thermally stable
HeLa Kyoto [3] = experiment: solubility change mitosis vs G1/S (difference of NP-40 vs SDS log2 ratios) (log2 ratio difference); higher = more soluble in mitosis
HeLa Kyoto [4] = experiment: thermal stability score vs G1/S (z-score of summed log2 fold changes over temperatures); higher = more thermally stable than in G1/S
[5] = cell cycle stage: early G1 (4.5 h after nocodazole release)
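Wherever melting temperature (median over replicates), in situ is given: HeLa Kyoto cells synchronized by double thymidine or nocodazole block, proteins quantified by TMT10plex mass spectrometry, three independent biological replicates.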
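Wherever solubility change mitosis vs G1/S (difference of NP-40 vs SDS log2 ratios) is given: synchronized HeLa Kyoto cells (double thymidine block for G1/S, nocodazole release for mitosis), protein amounts in NP-40 versus SDS lysates quantified by mass spectrometry, three biological replicates.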
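Wherever solubility in G1/S (NP-40 vs SDS abundance) is given: HeLa Kyoto cells arrested at G1/S by double thymidine block, proteins quantified by TMT10plex mass spectrometry in mild NP-40 versus SDS extracts, three biological replicates.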
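Wherever thermal stability score vs G1/S (z-score of summed log2 fold changes over temperatures) is given: synchronized HeLa Kyoto cells, proteins quantified by TMT10plex mass spectrometry, three biological replicates, mitosis taken 0.5 h after nocodazole release, G1/S directly after double thymidine block.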

CLIC4, sequence (chain, as listed by the source): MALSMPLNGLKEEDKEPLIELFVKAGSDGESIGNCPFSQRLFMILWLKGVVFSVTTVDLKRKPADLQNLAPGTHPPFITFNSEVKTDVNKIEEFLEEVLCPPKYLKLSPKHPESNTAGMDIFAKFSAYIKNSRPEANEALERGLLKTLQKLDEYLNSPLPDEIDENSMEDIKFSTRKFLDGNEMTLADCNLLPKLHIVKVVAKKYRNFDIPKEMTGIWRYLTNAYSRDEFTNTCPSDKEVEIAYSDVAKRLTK
ADCK3, sequence (chain, as listed by the source): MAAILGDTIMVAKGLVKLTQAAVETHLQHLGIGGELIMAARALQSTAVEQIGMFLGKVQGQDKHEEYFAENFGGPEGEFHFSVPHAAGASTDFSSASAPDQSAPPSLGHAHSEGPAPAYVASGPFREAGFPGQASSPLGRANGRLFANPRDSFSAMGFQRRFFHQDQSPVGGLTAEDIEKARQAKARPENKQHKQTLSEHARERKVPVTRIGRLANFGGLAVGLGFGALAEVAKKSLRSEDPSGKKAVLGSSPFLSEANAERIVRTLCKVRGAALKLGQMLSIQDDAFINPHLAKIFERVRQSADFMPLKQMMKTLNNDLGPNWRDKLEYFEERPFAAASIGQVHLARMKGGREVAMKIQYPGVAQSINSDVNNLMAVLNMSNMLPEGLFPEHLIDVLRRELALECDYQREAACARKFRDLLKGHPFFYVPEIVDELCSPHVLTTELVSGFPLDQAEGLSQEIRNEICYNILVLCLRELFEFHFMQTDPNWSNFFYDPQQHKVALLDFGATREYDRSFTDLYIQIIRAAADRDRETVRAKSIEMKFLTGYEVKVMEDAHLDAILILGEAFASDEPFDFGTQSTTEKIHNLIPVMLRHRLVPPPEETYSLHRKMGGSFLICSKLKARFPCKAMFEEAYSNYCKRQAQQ

| Substance | solubility in G1/S (log2) (HeLa Kyoto [1]) | melting temperature (HeLa Kyoto [2]; cell cycle stage: G1/S) [°C] | melting temperature (HeLa Kyoto [2]; cell cycle stage: mitosis) [°C] | solubility change mitosis (log2) (HeLa Kyoto [3]) | thermal stability score (HeLa Kyoto [4]; [5]) | thermal stability score (HeLa Kyoto [4]; cell cycle stage: mitosis) |
| --- | --- | --- | --- | --- | --- | --- |
| MDTCGVGYVALGEAGPVGNMTVVDSPGQEVLNQLDVKTSSEMTSAEASVEMSLPTPLPGFEDSPDQRRLPPEQESLSRLEQPDLSSEMSKVSKPRASKPGRKRGGRTRKGPKRPQQPNPPSAPLVPGLLDQSNPLSTPMPKKRGRKSKAELLLLKLSKDLDRPESQSPKRPPEDFETPSGERPRRRAAQVALLYLQELAEELSTALPAPVSCPEGPKVSSPTKPKKIRQPAACPGGEEVDGAPRDEDFFLQVEAEDVEESEGPSESSSEPEPVVPRSTPRGSTSGKQKPHCRGMAPNGLPNHIMAPVWKCLHLTKDFREQKHSYWEFAEWIPLAWKWHLLSELEAAPYLPQEEKSPLFSVQREGLPEDGTLYRINRFSSITAHPERWDVSFFTGGPLWALDWCPVPEGAGASQYVALFSSPDMNETHPLSQLHSGPGLLQLWGLGTLQQESCPGNRAHFVYGIACDNGCIWDLKFCPSGAWELPGTPRKAPLLPRLGLLALACSDGKVLLFSLPHPEALLAQQPPDAVKPAIYKVQCVATLQVGSMQATDPSECGQCLSLAWMPTRPHQHLAAGYYNGMVVFWNLPTNSPLQRIRLSDGSLKLYPFQCFLAHDQAVRTLQWCKANSHFLVSAGSDRKIKFWDLRRPYEPINSIKRFLSTELAWLLPYNGVTVAQDNCYASYGLCGIHYIDAGYLGFKAYFTAPRKGTVWSLSGSDWLGTIAAGDISGELIAAILPDMALNPINVKRPVERRFPIYKADLIPYQDSPEGPDHSSASSGVPNPPKARTYTETVNHHYLLFQDTDLGSFHDLLRREPMLRMQEGEGHSQLCLDRLQLEAIHKVRFSPNLDSYGWLVSGGQSGLVRIHFVRGLASPLGHRMQLESRAHFNAMFQPSSPTRRPGFSPTSHRLLPTP [GTF3C2] | -0.18 | 46.5 | 49.5 | 0.119 | 2.79 | 6.24 |
| CLIC4 | 0.409 | 52.1 | 52.5 | -0.146 | -0.344 | 0.497 |
| MGKGCKVVVCGLLSVGKTAILEQLLYGNHTIGMEDCETMEDVYMASVETDRGVKEQLHLYDTRGLQEGVELPKHYFSFADGFVLVYSVNNLESFQRVELLKKEIDKFKDKKEVAIVVLGNKIDLSEQRQVDAEVAQQWAKSEKVRLWEVTVTDRKTLIEPFTLLASKLSQPQSKSSFPLPGRKNKGNSNSEN [NKIRAS1] | 0.0841 | 48.9 | 48.6 | -0.0109 | 2.91e-19 | -1.95e-17 |
| ADCK3 | 0.231 | 51.1 | 50 | -0.0659 | 0.477 | -0.51 |
| MAARRALHFVFKVGNRFQTARFYRDVLGMKVESCSVARLECSGAISAHCSDYTRITEDSFSKPYDGKWSKTMVGFGPEDDHFVAELTYNYGVGDYKLGNDFMGITLASSQAVSNARKLEWPLTEVAEGVFETEAPGGYKFYLQNRSLPQSDPVLKVTLAVSDLQKSLNYWCNLLGMKIYEKDEEKQRALLGYADNQCKLELQGVKGGVDHAAAFGRIAFSCPQKELPDLEDLMKRENQKILTPLVSLDTPGKATVQVVILADPDGHEICFVGDEAFRELSKMDPEGSKLLDDAMAADKSDEWFAKHNKPKASG [GLOD4] | 0.42 | 50.8 | 50.9 | -0.012 | 0.704 | 0.532 |
| MSLKSERRGIHVDQSDLLCKKGCGYYGNPAWQGFCSKCWREEYHKARQKQIQEDWELAERLQREEEEAFASSQSSQGAQSLTFSKFEEKKTNEKTRKVTTVKKFFSASSRVGSKKEIQEAKAPSPSINRQTSIETDRVSKEFIEFLKTFHKTGQEIYKQTKLFLEGMHYKRDLSIEEQSECAQDFYHNVAERMQTRGKVPPERVEKIMDQIEKYIMTRLYKYVFCPETTDDEKKDLAIQKRIRALRWVTPQMLCVPVNEDIPEVSDMVVKAITDIIEMDSKRVPRDKLACITKCSKHIFNAIKITKNEPASADDFLPTLIYIVLKGNPPRLQSNIQYITRFCNPSRLMTGEDGYYFTNLCCAVAFIEKLDAQSLNLSQEDFDRYMSGQTSPRKQEAESWSPDACLGVKQMYKNLDLLSQLNERQERIMNEAKKLEKDLIDWTDGIAREVQDIVEKYPLEIKPPNQPLAAIDSENVENDKLPPPLQPQVYAG [RABGEF1] | 0.143 | 52.3 | 50.3 | -0.0709 | 0.899 | -2.37 |
| MGRRSRGRRLQQQQRPEDAEDGAEGGGKRGEAGWEGGYPEIVKENKLFEHYYQELKIVPEGEWGQFMDALREPLPATLRITGYKSHAKEILHCLKNKYFKELEDLEVDGQKVEVPQPLSWYPEELAWHTNLSRKILRKSPHLEKFHQFLVSETESGNISRQEAVSMIPPLLLNVRPHHKILDMCAAPGSKTTQLIEMLHADMNVPFPEGFVIANDVDNKRCYLLVHQAKRLSSPCIMVVNHDASSIPRLQIDVDGRKEILFYDRILCDVPCSGDGTMRKNIDVWKKWTTLNSLQLHGLQLRIATRGAEQLAEGGRMVYSTCSLNPIEDEAVIASLLEKSEGALELADVSNELPGLKWMPGITQWKVMTKDGQWFTDWDAVPHSRHTQIRPTMFPPKDPEKLQAMHLERCLRILPHHQNTGGFFVAVLVKKSSMPWNKRQPKLQGKSAETRESTQLSPADLTEGKPTDPSKLESPSFTGTGDTEIAHATEDLENNGSKKDGVCGPPPSKKMKLFGFKEDPFVFIPEDDPLFPPIEKFYALDPSFPRMNLLTRTTEGKKRQLYMVSKELRNVLLNNSEKMKVINTGIKVWCRNNSGEEFDCAFRLAQEGIYTLYPFINSRIITVSMEDVKILLTQENPFFRKLSSETYSQAKDLAKGSIVLKYEPDSANPDALQCPIVLCGWRGKASIRTFVPKNERLHYLRMMGLEVLGEKKKEGVILTNESAASTGQPDNDVTEGQRAGEPNSPDAEEANSPDVTAGCDPAGVHPPR [NSUN2] | 0.0447 | 46.6 | 49.2 | -0.00496 | 5.62 | 11.8 |
| MPYVDRQNRICGFLDIEENENSGKFLRRYFILDTREDSFVWYMDNPQNLPSGSSRVGAIKLTYISKVSDATKLRPKAEFCFVMNAGMRKYFLQANDQQDLVEWVNVLNKAIKITVPKQSDSQPNSDNLSRHGECGKKQVSYRTDIVGGVPIITPTQKEEVNECGESIDRNNLKRSQSHLPYFTPKPPQDSAVIKAGYCVKQGAVMKNWKRRYFQLDENTIGYFKSELEKEPLRVIPLKEVHKVQECKQSDIMMRDNLFEIVTTSRTFYVQADSPEEMHSWIKAVSGAIVAQRGPGRSASSEHPPGPSESKHAFRPTNAATATSHSTASRSNSLVSTFTMEKRGFYESLAKVKPGNFKVQTVSPREPASKVTEQALLRPQSKNGPQEKDCDLVDLDDASLPVSDV [PLEKHA1] | 0.0285 | 49.8 | 49 | -0.0272 | 0.0968 | 0.182 |
| MEPAPARSPRPQQDPARPQEPTMPPPETPSEGRQPSPSPSPTERAPASEEEFQFLRCQQCQAEAKCPKLLPCLHTLCSGCLEASGMQCPICQAPWPLGADTPALDNVFFESLQRRLSVYRQIVDAQAVCTRCKESADFWCFECEQLLCAKCFEAHQWFLKHEARPLAELRNQSVREFLDGTRKTNNIFCSNPNHRTPTLTSIYCRGCSKPLCCSCALLDSSHSELKCDISAEIQQRQEELDAMTQALQEQDSAFGAVHAQMHAAVGQLGRARAETEELIRERVRQVVAHVRAQERELLEAVDARYQRDYEEMASRLGRLDAVLQRIRTGSALVQRMKCYASDQEVLDMHGFLRQALCRLRQEEPQSLQAAVRTDGFDEFKVRLQDLSSCITQGKDAAVSKKASPEAASTPRDPIDVDLPEEAERVKAQVQALGLAEAQPMAVVQSVPGAHPVPVYAFSIKGPSYGEDVSNTTTAQKRKCSQTQCPRKVIKMESEEGKEARLARSSPEQPRPSTSKAVSPPHLDGPPSPRSPVIGSEVFLPNSNHVASGAGEAEERVVVISSSEDSDAENSSSRELDDSSSESSDLQLEGPSTLRVLDENLADPQAEDRPLVFFDLKIDNETQKISQLAAVNRESKFRVVIQPEAFFSIYSKAVSLEVGLQHFLSFLSSMRRPILACYKLWGPGLPNFFRALEDINRLWEFQEAISGFLAALPLIRERVPGASSFKLKNLAQTYLARNMSERSAMAAVLAMRDLCRLLEVSPGPQLAQHVYPFSSLQCFASLQPLVQAAVLPRAEARLLALHNVSFMELLSAHRRDRQGGLKKYSRYLSLQTTTLPPAQPAFNLQALGTYFEGLLEGPALARAEGVSTPLAGRGLAERASQQS [PML] | -0.134 | 50.3 | 50.5 | 0.33 | -0.223 | 2.23 |
| SUCLG1 | 0.168 | 50.8 | 50.9 | -0.0912 | -0.306 | -0.375 |

From the supplement of paper PMC5998384
